Reference: patent US8697386B2, “Methods and compositions for modulating hepsin activation of macrophage-stimulating protein” (Genentech, Inc., priority 2009, dated 2014)
* marks the point of attachment. CH2Cl = ClC*

Assays:
[1] = molecular target: T1, cell surface expressed hepsin in LnCap-34 cells (Homo sapiens, UniProt P05981); test: Pro-MSP activation by cell surface expressed hepsin in LnCap-34 cells; assay type: cell-based; settings: 1 μM inhibitor, 15 minutes preincubation, 125I-pro-MSP 25 μg/ml, 3 hours, 37° C.
T1 construct: expressed in transfected cells; host or cells: LnCaP-34 cells
T1 sequence (P05981 whole entry): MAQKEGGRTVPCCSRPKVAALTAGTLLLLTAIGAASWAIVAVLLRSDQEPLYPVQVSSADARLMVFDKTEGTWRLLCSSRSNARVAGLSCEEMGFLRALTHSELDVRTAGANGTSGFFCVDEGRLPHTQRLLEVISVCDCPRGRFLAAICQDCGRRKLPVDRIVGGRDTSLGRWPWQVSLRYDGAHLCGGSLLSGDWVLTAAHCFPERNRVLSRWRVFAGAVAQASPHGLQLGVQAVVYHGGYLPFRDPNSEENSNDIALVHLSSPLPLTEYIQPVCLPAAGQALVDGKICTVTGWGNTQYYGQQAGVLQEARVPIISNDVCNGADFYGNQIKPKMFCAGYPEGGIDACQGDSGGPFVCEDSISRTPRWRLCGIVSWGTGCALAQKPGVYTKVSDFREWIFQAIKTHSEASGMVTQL
Method: Confluent LnCap-34 cells cultured in 24-well plates were washed with serum-free RPMI-1640 medium and were incubated either alone or with different anti-hepsin inhibitors (1 μM of anti-hepsin antibody Fab25/1 μM of KD1/1 μM of Ac-KQLR-cmk (‘KLQR” disclosed as SEQ ID NO:10)) in serum-free RPMI-1640 medium for 15 minutes at 37° C. prior to addition of 125I-labeled pro-MSP (25 μg/ml). After incubation for 3 hours at 37° C., aliquots were removed and analyzed by SDS-PAGE (4-20% gradient gel) (Invitrogen, Carlsbad, Calif.) followed by exposure to X-ray films.

[2] = test system: Ron signaling pathway; test: Immunoblot for phosphorylated downstream kinases in A2780 cells overexpressing human Ron; assay type: cell-based; settings: pro-MSP 10 and 50 ng/ml, 10 nM hepsin, 1 hour
Method: Immunoblot for the detection of phosphorylated kinases: A human ovarian carcinoma cell line (A2780) overexpressing human Ron was used to study the phosphorylation of Ron and other downstream kinase. Cells at a density of 2×10^5 cells/well were cultured in 12-well plate and serum-starved for 24 hours. The cells were then stimulated with either pro-MSP (10 and 50 ng/ml) alone or in presence of 10 nM Hepsin for 1 hour. Mature MSP from a commercial source and hepsin were used as controls. Samples were prepared by washing cells twice with cold PBS followed by addition of 200 ul lysis buffer. Samples were then analyzed by SDS/PAGE on 4-12% Tris-glycine gels (Invitrogen, Carlsbad, Calif.). Proteins were transferred onto nitrocellulose membranes and subsequently treated with anti-Ron antibody or anti-phospho-AKT antibody or anti-phospho-MAPK antibody or anti-phospho-S6 antibody, overnight at 4° C. After washing, membranes were incubated with IRDye800-conjugated goat anti-mouse IgG (Rockland, Gilbertsville, Pa.) and AlexaFluor 680 goat anti-rabbit IgG (Invitrogen) for 1 h. Proteins were detected with the Odyssey Infrared Imaging System (LI-COR Biosciences, Lincoln, Nebr.).

Row | Substance | blocking of pro-MSP proteolytic cleavage by cell surface hepsin [1] | phosphorylation of MAP kinase and S6 kinase (activation of Ron signaling pathway) [2]
1 | KD1: Kunitz domain 1 (KD1) of HAI-1 or HAI-1B, hepsin inhibitor (TEDYCLASNKVGRCRGSFPRWYYDPTEQICKSFVYGGCLGNKNNYLREEECILACRGV) | effectively blocked | –
2 | Ac-KQLR-chloromethylketone (Ac-KQLR-CH2Cl; SMILES CC(=O)N[C@@H](CCCCN)C(=O)N[C@@H](CCC(N)=O)C(=O)N[C@@H](CC(C)C)C(=O)N[C@@H](CCCNC(=N)N)C(=O)CCl) [reference compound] | effectively blocked | –
3 | hepsin: extracellular domain of the human recombinant hepsin, type II transmembrane serine protease | – | Neither hepsin nor pro-MSP alone was effective
